These results are taken from IntAct's records for PubMed 28827714.

B1: Interleukin-17F (Homo sapiens), Q96PD4 (parent)
chain: MTVKTLHGPAMVKYLLLSILGLAFLSEAAARKIPKVGHTFFQKPESCPPVPGGSMKLDIGIINENQRVSMSRNIESRSTSPWNYTVTWDPNRYPSEVVQAQCRNLGCINAQGKEDISMNSVPIQQETLVVRRKHQGCSVSFQLEKVLVTVGCTCVTPVIHHVQ
partner: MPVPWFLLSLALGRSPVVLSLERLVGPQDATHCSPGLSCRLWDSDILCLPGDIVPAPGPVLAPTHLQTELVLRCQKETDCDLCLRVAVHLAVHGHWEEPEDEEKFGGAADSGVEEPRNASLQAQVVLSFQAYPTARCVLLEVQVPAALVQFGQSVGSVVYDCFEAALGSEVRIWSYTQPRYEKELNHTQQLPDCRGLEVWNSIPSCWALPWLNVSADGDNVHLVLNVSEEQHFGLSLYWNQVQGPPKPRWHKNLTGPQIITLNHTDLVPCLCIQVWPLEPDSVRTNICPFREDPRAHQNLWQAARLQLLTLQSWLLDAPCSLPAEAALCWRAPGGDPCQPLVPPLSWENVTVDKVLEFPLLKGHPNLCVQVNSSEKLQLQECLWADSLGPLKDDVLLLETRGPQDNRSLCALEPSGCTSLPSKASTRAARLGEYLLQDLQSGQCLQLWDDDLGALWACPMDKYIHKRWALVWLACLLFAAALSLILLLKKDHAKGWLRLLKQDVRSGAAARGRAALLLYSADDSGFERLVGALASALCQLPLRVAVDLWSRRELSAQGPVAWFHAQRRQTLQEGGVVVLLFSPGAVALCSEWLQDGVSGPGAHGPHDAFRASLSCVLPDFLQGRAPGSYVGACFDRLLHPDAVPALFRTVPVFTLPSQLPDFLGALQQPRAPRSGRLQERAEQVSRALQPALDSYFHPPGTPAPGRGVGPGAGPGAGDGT
B2: Interleukin-17F (Homo sapiens), Q96PD4 (parent)
chain: B1 chain

The first test covers variants of B1. The note with it: with IL17RC.
For the variant R77A, the “effect of a mutation on the interaction” value is recorded as “decreasing interaction strength”.

The next test covers variants of B2. The note with it: with IL17RA.
On to R77A, for which the “effect of a mutation on the interaction” value is “decreasing interaction strength”.
